This note sets out measurements from PMC1995591 (Molecular Microbiology, 2007).

T1: His6-KstRMtb (KstR) (Mycobacterium tuberculosis H37Rv, UniProt P96856 22-220)
T1 sequence: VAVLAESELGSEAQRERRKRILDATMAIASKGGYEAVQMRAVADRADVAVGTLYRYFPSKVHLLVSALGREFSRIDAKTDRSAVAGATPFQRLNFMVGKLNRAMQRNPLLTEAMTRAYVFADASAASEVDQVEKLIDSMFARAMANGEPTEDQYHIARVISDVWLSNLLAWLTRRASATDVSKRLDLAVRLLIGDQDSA

B1: unlabelled kstR 29 bp probe (dsDNA)
DNA 1: TGCCCACTAGAACGTGTTCTAATAGTGCT
DNA 2: AGCACTATTAGAACACGTTCTAGTGGGCA
B2: Rv0953c/Rv0954 probe (dsDNA)
DNA 1: GCGCAGGTGGAACACGTTCTAATTCGGTG
DNA 2: CACCGAATTAGAACGTGTTCCACCTGCGC
B3: Rv1894c/Rv1895 probe (dsDNA)
DNA 1: ATAGAACTGAAACGTGTTCTAGTTTAGTA
DNA 2: TACTAAACTAGAACACGTTTCAGTTCTAT
B4: Rv3570c/Rv3571 probe, motif 1 (dsDNA)
DNA 1: GAAAGACTAGAACACGTTCCGATTTGTGT
DNA 2: ACACAAATCGGAACGTGTTCTAGTCTTTC
B5: Rv3573c/Rv3574 (kstR) 29 bp probe (dsDNA)
DNA 1: TGCCCACTAGAACGTGTTCTAATAGTGCT
DNA 2: AGCACTATTAGAACACGTTCTAGTGGGCA
B6: Rv3531c/Rv3532 probe (dsDNA)
DNA 1: TCGACACTAGAACGTGTTCCTGTTTTGCG
DNA 2: CGCAAAACAGGAACACGTTCTAGTGTCGA
B7: Rv3520c/Rv3521 probe (dsDNA)
DNA 1: TGTCGAGTAGAACAGGTTCTAACAACGGT
DNA 2: ACCGTTGTTAGAACCTGTTCTACTCGACA
B8: Rv0223c probe (dsDNA)
DNA 1: GCGAAACGAGAACGTGTTCCATTATTAGG
DNA 2: CCTAATAATGGAACACGTTCTCGTTTCGC
B9: Rv0940c probe (dsDNA)
DNA 1: GTCAAATTAGAACACGTTCTAATCTCGTT
DNA 2: AACGAGATTAGAACGTGTTCTAATTTGAC
B10: Rv0551c/Rv0552 probe (dsDNA)
DNA 1: TCCAAATTGCAACACGTTCTAGTCTTGCC
DNA 2: GGCAAGACTAGAACGTGTTGCAATTTGGA
B11: Rv3570c/Rv3571 probe, motif 2 (dsDNA)
DNA 1: TCATAACTAGAACATGTTACAGAAAACCC
DNA 2: GGGTTTTCTGTAACATGTTCTAGTTATGA
B12: Rv3545c/Rv3546 probe (dsDNA)
DNA 1: ATAGTAATGAAACGTGTTCTAGCCTGGCC
DNA 2: GGCCAGGCTAGAACACGTTTCATTACTAT
B13: Rv3515c/Rv3516 probe (Table 2 prints Rv3515c/Rv3532) (dsDNA)
DNA 1: ACCAAACTAGAACGTGTTACATTTCTTGA
DNA 2: TCAAGAAATGTAACACGTTCTAGTTTGGT
B14: Rv3503c/Rv3504 probe (dsDNA)
DNA 1: CAGAGACTAGAACGTGTTACAACCGGGAA
DNA 2: TTCCCGGTTGTAACACGTTCTAGTCTCTG
B15: His6-tagged KstRMtb (Mycobacterium tuberculosis TetR-type regulator Rv3574) (natural protein)
chain: MSSANTNTSSAPDAPPRAVMKVAVLAESELGSEAQRERRKRILDATMAIASKGGYEAVQMRAVADRADVAVGTLYRYFPSKVHLLVSALGREFSRIDAKTDRSAVAGATPFQRLNFMVGKLNRAMQRNPLLTEAMTRAYVFADASAASEVDQVEKLIDSMFARAMANGEPTEDQYHIARVISDVWLSNLLAWLTRRASATDVSKRLDLAVRLLIGDQDSA

As usually defined, the stoichiometry N is the number of molecules, sites or subunits per partner or assembly.

In the first data set the target is T1, His6-KstRMtb (KstR). Put plainly: competition.
Regarding B1, the binding result is recorded as “binds”.

A further data set addresses T1, His6-KstRMtb (KstR). Nature of the data set: EMSA.
For the molecule B2, the binding result is “binds”.
On the same count and under the same terms, the same measure for B3: “binds”; for B4: “binds”.
On the same count and under the same terms, the same measure for B5: “binds”; for B6: “binds”.
The same measure, in the same setting: the same measure for B7: “binds”.
B8: the binding result was “no binding”.
Same read-out and setting: the same measure for B9: “binds”.
On the same count and under the same terms, the same measure for B10: “binds”; for B11: “binds”.
On the same count and under the same terms, the same measure for B12: “binds”.
As for B13, the binding result was “binds”.
On the same count and under the same terms, the same measure for B14: “binds”.

The next data set deals with the molecule itself. Put plainly: SEC.
For the molecule B15, the “stoichiometry N” value was 2.
